Laboratory results: the supplement of paper PMC10724198
± gives the standard deviation of the averaged measurements.

Test system: Saccharomyces cerevisiae
Assay: protein stability index of tFT-peptide fusion (C-terminal peptide) (PSI (0-1 scale)); higher = more stable (slower turnover)
Conditions: genetic background: doa10 deletion; temperature: 30 C
Method: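 MPS profiling in S. cerevisiae of the tFT-X12 degron library: putative degron peptides plus stable controls, 12 aa, fused to the C-terminus of a sfGFP-mCherry timer. Cells are FACS-sorted into 8 mCherry/sfGFP bins and deep-sequenced. PSI runs from 0 (unstable) to 1 (stable). Backgrounds are wild type, das1Δ and doa10Δ at 30 °C, and wild type, das1Δ, cdc34-1 and cdc53-1 at 37 °C; 2-3 technical replicates each.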
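Note: PSI is a weighted mean of sequencing reads over stability bins, variants kept only with over 10 reads, mCherry proximal and sfGFP distal, peptide attached via GGGS linker.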

| Sequence | protein stability index |
| --- | --- |
| WLWYSPIAFTAL | 0.11 ± 0.019 |

Same assay, conditions: genetic background: wild type; temperature: 30 C

| Sequence | protein stability index |
| --- | --- |
| SVSRIFRTFSCY | 0.224 ± 0.0094 |
| SVVYVIYCGGIL | 0.336 ± 0.013 |
| SWLAQCVVISLL | 0.364 ± 0.019 |
| TALSRLFECFLS | 0.343 ± 0.03 |
| TCGAKWIFSHIC | 0.152 ± 0.0092 |
| TFVGWIVWLCGS | 0.258 ± 0.022 |
| TFVLREYVWVMS | 0.231 ± 0.027 |
| TIKGRLNVRKIE | 0.463 ± 0.032 |
| TPYIFVLACLHV | 0.309 ± 0.021 |
| TRKKENERRKNG | 0.278 ± 0.04 |
| TSFCIFFVRFVI | 0.289 ± 0.041 |
| TVETYNRARKAS | 0.232 ± 0.039 |
| TVVIFLCSYITT | 0.122 ± 0.04 |
| TYNVMFSPWRKA | 0.148 ± 0.034 |
| TYYPLNRSRFIG | 0.139 ± 0.0058 |
| VAALFPPLRFLN | 0.122 ± 0.036 |
| VCFAWWGARCVA | 0.357 ± 0.028 |
| VCFFLFWCLSFS | 0.353 ± 0.025 |
| VCLCVIICSMSV | 0.0249 ± 0.0073 |
| VCQVCVCFLFWR | 0.139 ± 0.016 |
| VCVVVLVGVVFL | 0.24 ± 0.031 |
| VELRNCYLLVKA | 0.22 ± 0.032 |
| VFFLAFYFYRCF | 0.194 ± 0.029 |
| VFMSVAPVSVLG | 0.184 ± 0.023 |
| VFSAIPDWLILA | 0.319 ± 0.016 |
| VFSVTVVFVSVL | 0.191 ± 0.024 |

| Sequence | protein stability index |
| --- | --- |
| VFVGGVSVLILF | 0.434 ± 0.033 |
| VFWLLVGLGCFS | 0.417 ± 0.028 |
| VFYWVGVLCGWG | 0.29 ± 0.023 |
| VGCMVVIWVLWG | 0.18 ± 0.026 |
| VGFCICISIMSF | 0.108 ± 0.031 |
| VGPLAPVCLLVL | 0.359 ± 0.019 |
| VILCSCSFVLRP | 0.376 ± 0.02 |
| VKIEVICRVSLI | 0.394 ± 0.05 |
| VLCFFWWWCRVC | 0.324 ± 0.035 |
| VLFVRGHTLWLM | 0.458 ± 0.017 |
| VLSCIPRLAIAA | 0.251 ± 0.0058 |
| VLVVTAFTFSCP | 0.317 ± 0.015 |
| VLVVVRSLSFLS | 0.31 ± 0.023 |
| VNRRCWISRTLP | 0.174 ± 0.04 |
| VPASWLRMLAFC | 0.0647 ± 0.013 |
| VRFSAVFVKVGV | 0.402 ± 0.023 |
| VRIGCSLLFFLP | 0.501 ± 0.015 |
| VRSELHINSFIH | 0.501 ± 0.015 |
| VRTFVFLVGYCE | 0.394 ± 0.034 |
| VRVFSLVVCWVV | 0.219 ± 0.028 |
| VSSSFSVLVLLF | 0.339 ± 0.026 |
| VTLVIYVLVQLT | 0.15 ± 0.031 |
| VTTTWTWTVRLC | 0.0807 ± 0.024 |
| VVAALTPLITVA | 0.179 ± 0.024 |
| VVLAFFFWFFVG | 0.265 ± 0.038 |
| VVLRCGCLVFIN | 0.105 ± 0.017 |

| Sequence | protein stability index |
| --- | --- |
| VVRMRPRLFSLY | 0.208 ± 0.0086 |
| VVTFCCARVTKI | 0.571 ± 0.025 |
| VVTFLCPLVGHV | 0.381 ± 0.013 |
| VVWFCGFFFVMV | 0.325 ± 0.03 |
| VWCVFHVWSGRL | 0.409 ± 0.018 |
| VWFVFVCAVCVL | 0.163 ± 0.023 |
| VWGLGWLVVGVG | 0.179 ± 0.018 |
| VWPLAFFLRFFI | 0.233 ± 0.013 |
| VWSSSYVPLGVY | 0.271 ± 0.033 |
| VWWTLWRVHMLG | 0.142 ± 0.021 |
| VYCLFLPLGVAF | 0.171 ± 0.022 |
| VYCLVLFFSQWC | 0.351 ± 0.016 |
| VYFPRLLVRVSW | 0.377 ± 0.043 |
| WAIMGLIIFCLF | 0.244 ± 0.022 |
| WGEAGRPAGRGA | 0.6506 ± 0.004 |
| WGFLSVVCLSGV | 0.398 ± 0.013 |
| WGLGWRGALVAV | 0.324 ± 0.027 |
| WGLPVGVESSGG | 0.661 ± 0.032 |
| WGRFFWGCGVWV | 0.463 ± 0.032 |
| WGRGYRWRIWDV | 0.433 ± 0.0092 |
| WIGCTVKIASLY | 0.261 ± 0.019 |
| WLCLFRFLGVAY | 0.216 ± 0.012 |
| WLMVGVDWRFVG | 0.08 ± 0.012 |
| WLSWATRRIVLG | 0.401 ± 0.013 |
| WLWYSPIAFTAL | 0.107 ± 0.0089 |
